Measured values from patent US20230218710A1 (COHBAR, published 2023).
Square brackets hold non-standard residues; d marks the D form. Primed or numbered codes have the meaning given here. Ends that are not written are not given here. PEG12′ = not defined here

T1: Apelin Receptor (APJ) stably overexpressed in CHO-K1 AGTRL1 Gi cells (UniProt P35414 1-380, limits assumed)
T1 sequence (looked up): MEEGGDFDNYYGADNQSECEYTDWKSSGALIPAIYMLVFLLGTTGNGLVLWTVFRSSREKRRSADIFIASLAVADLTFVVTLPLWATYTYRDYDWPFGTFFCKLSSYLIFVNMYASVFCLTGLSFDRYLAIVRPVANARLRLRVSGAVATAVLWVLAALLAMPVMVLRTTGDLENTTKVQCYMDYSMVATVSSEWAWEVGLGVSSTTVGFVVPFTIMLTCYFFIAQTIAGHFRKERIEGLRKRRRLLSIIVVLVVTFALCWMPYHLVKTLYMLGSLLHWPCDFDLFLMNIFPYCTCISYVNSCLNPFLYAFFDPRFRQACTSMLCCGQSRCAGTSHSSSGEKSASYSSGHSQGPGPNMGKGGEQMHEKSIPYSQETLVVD


Assays:
Assay in all cases: cell-based or functional assay
[1] = target: T1, Apelin Receptor (APJ) stably …
[2] = target: T1, Apelin Receptor (APJ) stably …; remark: listed apart in the source
[3] = target: ProLink tagged human APJ (Apelin Receptor) in CHO-K1 AGTRL1 β-Arrestin cells (human, UniProt P35414 1-380)

Row | Binder | inhibition of forskolin-induced cAMP, Percent of Pyr-Apelin-13 Control Activity (10 µM peptide) [1] [%] | IC50 (M), inhibition of forskolin-stimulated cAMP accumulation [2] [M] | β-Arrestin recruitment, Percent of Apelin-13 Control Activity (10 µM peptide) [3] [%]
1 | RRMMGMVFQSLCG[dA] (also: acetate salt, HCl salt) [SEQ ID NO: 15] | 105 | 4.49e-06 | 40
2 | RRLLGLVFQSLEG[dA] [SEQ ID NO: 41] | 15 | – | 0
3 | RRMMGMVFQCLEG[dA] [SEQ ID NO: 14] | 39 | – | 0
4 | RRMMGMVFQELCG[dA] [SEQ ID NO: 13] | 49 | – | 1
5 | RRLLGLVEQSLCG[dA] [SEQ ID NO: 40] | 19 | – | 0
6 | KRRLLGLVFQSLCGA ((PEG12) at the N-terminal K; C-terminal (dA) = D-alanine) [SEQ ID NO: 37] | 53 | 2.5e-06 | 12
7 | MMGMVFQ [SEQ ID NO: 46] | 11 | – | 0
8 | MRRMMGMVFQCLCGL [SEQ ID NO: 7] | 109 | 1.24e-06 | 91
9 | RMMGMVF [SEQ ID NO: 50] | 8 | – | 0
10 | MMGMV [SEQ ID NO: 44] | 5 | – | 0
11 | MMGMVFQSL [SEQ ID NO: 48] | 15 | – | 1
12 | MMGMVF [SEQ ID NO: 45] | 10 | – | 0
13 | KRRMMGMVFQSLCGA ((PEG12) at the N-terminal K; C-terminal (dA) = D-alanine) [SEQ ID NO: 36] | 101 | 1.6e-06 | 63
14 | RRMMGMVEQCLCG[dA] (cysteine pairing not given here) [SEQ ID NO: 12] | 24 | – | -1
15 | RRIIGIVFQSLCG[dA] [SEQ ID NO: 43] | – | 2.07e-06 | –
16 | RMMGMVFQ [SEQ ID NO: 51] | 24 | – | 0
17 | [PEG12′]KRRIIGIVFQCLCG[dA] (cysteine pairing not given here) [SEQ ID NO: 42] | 33 | 4.38e-06 | 8
18 | MMGMVFQSLCG[dA] [SEQ ID NO: 49] | 14 | – | 1
19 | RRMMGMVAQCLCG[dA] (cysteine pairing not given here) [SEQ ID NO: 11] | 49 | – | 0
20 | MMGMVFQS [SEQ ID NO: 47] | -6 | – | 1
